Data reported in the NTF2 design screens of Basanta et al. (2020).

assay: protease stability score; higher = more stable; yeast display proteolysis, trypsin and chymotrypsin;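 further: relative to predicted unfolded state with 0 unfolded-like and 1 meaning tenfold more protease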

| Sequence | protease stability score |
| --- | --- |
| DEESEDAKRVLDEWLHMLDTGNEERLHELADPNMRFDVNGKEIHGMEIWQKEMKRSLTHHGAEMHHRIRTIEVQGNKILVDGELIINFNGRTYLHKIHIIFQKFDGRWHVESLTIK | -0.052 |
| SEDREFMKTDLERWRHDLLTGDEESSHRLADPHVRVYIGDKEFIGREELRRVLREFIERFKGARIEVRLRSLHLIDGRMHIDTEWHIHVGEKHIMLDIKINQDKVNGRWELRNEVIS | 1.11 |
| SEEEEFLEKLMREFVHDLLTGDEDRIRELADPHVKFEMDVNGVRFRAHGREEMLRELRRFWKEIRVKHIQTHDVKNVGDKAHSDVREVVEVDGREERHESEIIVVTINGRMQSVVLIFK | 1.52 |
| SELEKDQEDFVRIVEEMMNTGDEHVFKNLADPHVRNDVNGKDVHGRELVTKIWHFLLRHLGINHIELKHVEIYGNKVIIHMEERVGDKRVELVIVAEKVNGKWYLSEIRFEHK | 1.28 |
| NEEEHKLEEEFERLMHLLLTGDEEKLHRLADPNVKVNVNGKDLHGMELFFHVWWEELKRYDYWHITIRHIDSQGNKADSEVELNLVFNGKEIRIDSRMHLEVVNGRIKRIEIRPI | 1.63 |
| DEERKLATELFKWLIDLYLTGDEETFEKLADPHYLSDVNGRNIHGMELISHIWREEIEKYGWEIHIKIRHIELQGDKSKSETEIHNNYDGRRIVFETRIIVRIVNGRIKSIEVRFR | 1.28 |
| DKEEEDSDEALKWFFDVLRTGDERLIREMLDPDARIEIDGVPSHGRESVEEFVHRIRNMKVDDFQVKRIDVQGDKVRLDTHFDGTINGVRRQVDLTIIARKINGRWFNESISIK | 1.91 |
| SDVEEMLHRIARLIVHNLFTGDWEDLVRMMDPHARYIVNGKESVGWRRVTEMLRRHHEELRIREIRIRHIEVYNGKAELHLEVNEEVNGREVSLDTRLHVLTINGVIRSIHIEVE | 0.719 |
| SEEEKTLERIARLHIQLWLTGDEDTLKKLADPDDRLVVDFENHTWEHHGREEVEKHTKHFLRHLRITHVDHHTVQIINGKAHMHTTVDFQVNGKIVKMHTTIIVVEVNGRLKFVRIEVH | 1.22 |
| SDEEKESKHMFKIYLDFLRTGNEEQYSEMADPNVRIEVNGVTIHGRELAVKFMKEVRDEMRIHDYRIRHLDVFNGRVHADTEENVEFNGVRFITRTKIHLHIVNGRIKSVREEID | 0.903 |
| SEDERDARTMTEEITHIIETGDEHRFQELADPNMRLEQGEYHRHGREQVVEFLREVLRELRLKHIHIKDIHVIDGRVIIDVWVHSQYGDKEFTVKVIWIVHKIDGRWIFHSVRIE | 1.35 |
| DEIEEIAREIAKELHHLILTGDEDRLNELMDPNVKFESIVNGRRIESIGRENVKEVLRRLLEKLGLDRFSFIRRDIKYFDGVIHIFGQLEIDGVRHETEIIIFIVNGKVKSIRIRIQ | 1.14 |
| SESKEFIKRFTEEILKNTLTGNEDRYEELLDPNVRVEVGDKEHHGREEALEFLHRIWRELRTKHIVLRDMRIIGDKAEVEYEVRVEVNGVELHMTRRMEIVVIDGRLKAVKLEHT | 1.24 |
| SEEEERMETLTRLLDHAWHTGDFDFLSKLLDPNTRVVQGEFHHHGRHALRKILHDLNRIMGVDHSDIEDREIQGDKIHIHVRIEVNGRVVDSHINIIVVDGRIKTVEMTIR | -0.216 |
| DEEDEETREIAEMLHRWFITGDWKALMKYVDPNMRNIIHVNGRNIHTHGWKDMVKDLKDLGLENIHVDLKSISFQGDKAHIDGQLRVGDKEEKVEIHSEVVNGRIKRLEIRVH | 1.9 |
| DEFKELTTEFIKQFLDNIRTGNEELLRELADPHVRFLVNGRELHGRESFVETFRHWRMKDWEIRDVEVYGEKLVMDGHVRVNIDGREDSVRVRLYVDKIDGQWHHRRFEFN | 1.76 |
| SEEDHHTERIVEEFIEAERTGDEDHLLELIDPHVRVDVNGVELHGREELYKFWRDWLTKFKNARIEIRHVNNQGDKSTVLVLRRINGVDLETHVKWVFVNGKLKSITIRLN | 1.49 |
| NEDEKLAEDAIQEYRHSVKTGDENFLKHLADPDVRMDYNGREYHGREEWEKFLRNILRHLRPKDFRIKHFDYYGDYMHFEGLHVGQINGKETHLHTEIIFLKINGRWHLRSIRIE | 0.401 |
| DTEEKELQKSLKELVTAVQTGDFKLLKELFDPHVRIDIGDKNVIGREEFSRFQKEEMEKWGVSRFTFDMEIHRYEIQGNKAYVDALNREEINGQEIHFNVDLFIHKINGKWLITEIRNK | 0.494 |
| NEMHEHAREFLERWKEWMHTGDEETMSKLADPHVRNEYNGVIRVGMEALEKVIRELRVRRTHDHHEHIEFQGDKLHIHVDQESDIEINGVRHRVRIHFDIISVKINGKWTLKSIRLTFH | 1.41 |
